Source: the supplement of paper PMC10065799, “High-throughput profiling of sequence recognition by tyrosine kinases and SH2 domains using bacterial peptide display” (eLife, 2023)

Experiments:
EPHB1 = EPHB1 (UniProt P54762); test: phosphorylation enrichment, bacterial display (enrichment ratio); higher = better substrate or ligand; peptides without Tyr show the background
FGFR3 = FGFR3 (UniProt P22607); test: as above
FGFR1 = FGFR1 (UniProt P11362); test: as above
c-Src = test: as above
c-Abl (mouse) = test: as above
Fyn = Fyn (UniProt P06241); test: as above
Hck = Hck (UniProt P08631); test: as above
Fer (mouse) = test: as above
AncSZ = test: as above
EPHB2 = EPHB2 (UniProt P29323); test: as above
Fes = Fes (UniProt P07332); test: as above
Jak2 = Jak2 (UniProt O60674); test: as above
MERTK = MERTK (UniProt Q12866); test: as above
Grb2 SH2 = Grb2 SH2 (UniProt P62993); test: SH2 binding enrichment of the phosphorylated peptide, bacterial display (enrichment ratio); higher = better substrate or ligand; peptides without Tyr show the background
c-Src SH2 = test: as above
SHP2-C SH2 = test: as above
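Throughout, for SH2 binding enrichment of the phosphorylated peptide, bacterial display: peptide library displayed on the E. coli surface as eCPX fusions, selected cells deep-sequenced, score is each peptide's frequency after selection divided by its frequency in the input.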
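Throughout, for phosphorylation enrichment, bacterial display: 11-residue human phosphosite peptides and single-mutation variants displayed on the E. coli surface, counted by deep sequencing, each peptide's frequency after selection divided by its frequency in the unselected input library; frequency after pTyr selection over input frequency; kinase dosed for 20-30% of maximal phosphorylation in three min.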

Jak2, sequence (O60674 whole entry, looked up): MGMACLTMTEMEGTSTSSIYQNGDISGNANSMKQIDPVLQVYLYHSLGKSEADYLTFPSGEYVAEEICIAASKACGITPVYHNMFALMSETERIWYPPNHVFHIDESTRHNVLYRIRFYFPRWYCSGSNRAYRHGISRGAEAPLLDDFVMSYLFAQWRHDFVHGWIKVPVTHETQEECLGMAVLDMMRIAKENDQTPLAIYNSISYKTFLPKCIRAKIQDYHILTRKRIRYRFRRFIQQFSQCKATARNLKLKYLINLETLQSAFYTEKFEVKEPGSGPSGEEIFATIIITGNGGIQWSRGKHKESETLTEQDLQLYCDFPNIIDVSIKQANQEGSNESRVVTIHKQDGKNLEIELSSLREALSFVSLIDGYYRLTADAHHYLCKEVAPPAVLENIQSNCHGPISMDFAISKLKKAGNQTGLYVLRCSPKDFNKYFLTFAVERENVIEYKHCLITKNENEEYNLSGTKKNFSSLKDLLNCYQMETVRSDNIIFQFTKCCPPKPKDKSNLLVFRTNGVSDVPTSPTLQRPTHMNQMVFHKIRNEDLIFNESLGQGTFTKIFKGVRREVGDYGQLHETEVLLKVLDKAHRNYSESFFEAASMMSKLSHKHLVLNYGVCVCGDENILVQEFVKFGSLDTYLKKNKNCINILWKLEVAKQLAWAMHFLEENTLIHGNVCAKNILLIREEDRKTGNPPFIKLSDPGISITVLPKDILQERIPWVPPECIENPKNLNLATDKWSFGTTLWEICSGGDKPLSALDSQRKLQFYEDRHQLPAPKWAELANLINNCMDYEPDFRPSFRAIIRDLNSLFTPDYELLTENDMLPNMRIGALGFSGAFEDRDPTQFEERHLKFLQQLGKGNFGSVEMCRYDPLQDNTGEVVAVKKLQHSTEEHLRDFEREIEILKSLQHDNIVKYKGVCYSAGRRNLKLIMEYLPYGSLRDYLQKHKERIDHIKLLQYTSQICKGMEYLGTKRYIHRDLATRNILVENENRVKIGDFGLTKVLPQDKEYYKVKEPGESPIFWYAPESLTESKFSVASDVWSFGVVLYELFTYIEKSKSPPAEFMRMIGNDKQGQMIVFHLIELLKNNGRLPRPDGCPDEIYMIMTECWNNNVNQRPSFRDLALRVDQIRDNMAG
Fyn, sequence (P06241 whole entry, looked up): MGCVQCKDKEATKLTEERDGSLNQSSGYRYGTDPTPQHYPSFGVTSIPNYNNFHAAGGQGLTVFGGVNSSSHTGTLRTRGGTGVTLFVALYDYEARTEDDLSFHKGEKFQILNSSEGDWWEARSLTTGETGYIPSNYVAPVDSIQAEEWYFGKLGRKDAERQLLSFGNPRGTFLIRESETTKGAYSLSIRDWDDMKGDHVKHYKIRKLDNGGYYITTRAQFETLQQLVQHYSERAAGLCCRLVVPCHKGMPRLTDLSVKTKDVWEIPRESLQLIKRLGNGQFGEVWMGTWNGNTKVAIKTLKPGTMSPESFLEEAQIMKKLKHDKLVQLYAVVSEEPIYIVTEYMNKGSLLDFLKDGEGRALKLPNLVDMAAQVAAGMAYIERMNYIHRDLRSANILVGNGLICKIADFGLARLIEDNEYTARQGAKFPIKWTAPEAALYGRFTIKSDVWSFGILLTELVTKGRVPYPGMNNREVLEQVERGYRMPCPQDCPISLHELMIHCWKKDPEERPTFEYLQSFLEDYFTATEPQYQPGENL
EPHB1, sequence (P54762 whole entry, looked up): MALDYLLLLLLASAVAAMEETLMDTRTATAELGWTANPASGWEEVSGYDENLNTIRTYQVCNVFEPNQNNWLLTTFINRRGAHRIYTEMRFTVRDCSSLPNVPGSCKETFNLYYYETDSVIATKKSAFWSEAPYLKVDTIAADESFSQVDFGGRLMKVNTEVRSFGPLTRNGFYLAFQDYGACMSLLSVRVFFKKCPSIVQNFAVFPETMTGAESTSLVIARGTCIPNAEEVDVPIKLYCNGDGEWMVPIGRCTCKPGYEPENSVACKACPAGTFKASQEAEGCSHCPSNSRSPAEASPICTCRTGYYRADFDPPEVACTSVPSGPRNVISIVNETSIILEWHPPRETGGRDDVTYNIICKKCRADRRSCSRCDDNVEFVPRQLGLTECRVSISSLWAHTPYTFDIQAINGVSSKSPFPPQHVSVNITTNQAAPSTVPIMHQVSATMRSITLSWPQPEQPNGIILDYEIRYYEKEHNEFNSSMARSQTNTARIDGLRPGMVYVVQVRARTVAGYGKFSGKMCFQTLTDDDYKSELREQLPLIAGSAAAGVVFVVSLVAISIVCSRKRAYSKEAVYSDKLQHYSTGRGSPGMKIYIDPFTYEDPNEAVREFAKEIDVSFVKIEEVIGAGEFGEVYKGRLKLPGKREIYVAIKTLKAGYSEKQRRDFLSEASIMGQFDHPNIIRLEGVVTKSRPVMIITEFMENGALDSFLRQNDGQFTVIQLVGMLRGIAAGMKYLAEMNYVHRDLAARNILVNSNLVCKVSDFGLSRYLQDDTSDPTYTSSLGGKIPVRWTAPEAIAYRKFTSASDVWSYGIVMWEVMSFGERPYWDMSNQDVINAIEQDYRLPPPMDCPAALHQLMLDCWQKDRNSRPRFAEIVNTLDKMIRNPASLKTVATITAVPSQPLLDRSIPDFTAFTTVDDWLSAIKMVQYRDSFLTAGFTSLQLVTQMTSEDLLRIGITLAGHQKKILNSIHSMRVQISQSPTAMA
EPHB2, sequence (P29323 whole entry, looked up): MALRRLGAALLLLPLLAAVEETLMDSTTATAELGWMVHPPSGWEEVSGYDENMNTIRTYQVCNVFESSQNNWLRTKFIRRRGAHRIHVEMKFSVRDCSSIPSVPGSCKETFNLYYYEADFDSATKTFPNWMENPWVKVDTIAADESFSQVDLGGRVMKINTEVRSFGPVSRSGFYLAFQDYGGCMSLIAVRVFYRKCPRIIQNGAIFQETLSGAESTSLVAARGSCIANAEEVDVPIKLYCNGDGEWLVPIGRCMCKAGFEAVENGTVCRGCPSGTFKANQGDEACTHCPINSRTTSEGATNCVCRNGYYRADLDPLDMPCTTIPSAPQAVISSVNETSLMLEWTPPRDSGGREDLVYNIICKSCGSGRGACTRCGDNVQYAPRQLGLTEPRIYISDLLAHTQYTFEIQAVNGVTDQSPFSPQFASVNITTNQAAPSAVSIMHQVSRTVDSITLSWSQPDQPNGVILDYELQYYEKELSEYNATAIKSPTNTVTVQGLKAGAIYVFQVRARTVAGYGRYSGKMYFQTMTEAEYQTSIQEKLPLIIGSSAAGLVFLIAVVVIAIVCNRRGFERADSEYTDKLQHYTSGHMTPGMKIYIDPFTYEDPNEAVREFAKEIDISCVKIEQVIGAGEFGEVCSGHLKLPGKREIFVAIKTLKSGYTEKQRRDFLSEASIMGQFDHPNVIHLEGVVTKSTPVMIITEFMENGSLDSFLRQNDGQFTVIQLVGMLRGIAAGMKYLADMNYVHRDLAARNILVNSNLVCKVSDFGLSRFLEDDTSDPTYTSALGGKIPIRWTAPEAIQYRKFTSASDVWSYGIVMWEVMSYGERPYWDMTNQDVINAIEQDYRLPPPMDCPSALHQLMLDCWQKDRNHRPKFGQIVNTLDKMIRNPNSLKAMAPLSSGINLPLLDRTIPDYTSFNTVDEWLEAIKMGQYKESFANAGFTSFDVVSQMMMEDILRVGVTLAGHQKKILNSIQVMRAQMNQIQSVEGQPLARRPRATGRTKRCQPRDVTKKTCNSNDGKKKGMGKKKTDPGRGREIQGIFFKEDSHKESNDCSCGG
FGFR1, sequence (P11362 whole entry, looked up): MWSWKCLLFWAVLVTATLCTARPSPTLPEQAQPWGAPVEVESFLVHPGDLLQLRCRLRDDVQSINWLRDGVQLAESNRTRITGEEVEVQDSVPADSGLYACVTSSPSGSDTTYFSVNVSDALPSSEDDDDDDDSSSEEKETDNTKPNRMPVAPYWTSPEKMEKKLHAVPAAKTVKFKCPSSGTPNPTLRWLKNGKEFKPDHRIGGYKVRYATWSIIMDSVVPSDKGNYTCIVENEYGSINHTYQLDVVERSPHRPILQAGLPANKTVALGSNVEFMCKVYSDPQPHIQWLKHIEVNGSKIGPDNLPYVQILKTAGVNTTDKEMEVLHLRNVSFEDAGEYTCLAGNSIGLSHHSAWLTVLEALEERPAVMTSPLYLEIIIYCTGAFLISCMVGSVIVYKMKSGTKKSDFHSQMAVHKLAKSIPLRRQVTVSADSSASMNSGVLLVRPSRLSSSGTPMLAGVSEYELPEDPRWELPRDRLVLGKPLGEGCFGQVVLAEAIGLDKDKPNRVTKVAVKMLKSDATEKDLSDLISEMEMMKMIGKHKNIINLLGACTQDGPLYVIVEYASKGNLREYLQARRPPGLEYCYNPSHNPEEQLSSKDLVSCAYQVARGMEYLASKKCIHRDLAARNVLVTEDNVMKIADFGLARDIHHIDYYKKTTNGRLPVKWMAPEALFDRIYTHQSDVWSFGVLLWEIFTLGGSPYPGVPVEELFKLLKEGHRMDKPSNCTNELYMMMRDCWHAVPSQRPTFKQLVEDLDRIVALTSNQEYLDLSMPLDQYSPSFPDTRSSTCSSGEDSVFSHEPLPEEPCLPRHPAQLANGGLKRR
Hck, sequence (P08631 whole entry, looked up): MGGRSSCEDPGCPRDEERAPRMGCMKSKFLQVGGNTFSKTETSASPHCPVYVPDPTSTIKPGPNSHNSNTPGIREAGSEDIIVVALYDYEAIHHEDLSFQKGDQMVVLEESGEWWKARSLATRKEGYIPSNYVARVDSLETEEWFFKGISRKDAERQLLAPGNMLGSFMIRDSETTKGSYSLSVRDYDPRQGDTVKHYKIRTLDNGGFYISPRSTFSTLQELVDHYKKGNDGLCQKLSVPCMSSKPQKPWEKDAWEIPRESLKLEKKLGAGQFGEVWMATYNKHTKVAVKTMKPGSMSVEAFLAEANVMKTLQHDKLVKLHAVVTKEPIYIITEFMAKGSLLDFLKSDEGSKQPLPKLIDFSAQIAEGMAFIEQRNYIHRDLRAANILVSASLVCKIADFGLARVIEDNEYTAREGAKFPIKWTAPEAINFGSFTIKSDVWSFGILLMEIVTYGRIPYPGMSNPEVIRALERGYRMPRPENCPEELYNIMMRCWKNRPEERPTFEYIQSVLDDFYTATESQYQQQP

Sequence | phosphorylation enrichment (EPHB1) | phosphorylation enrichment (FGFR3) | phosphorylation enrichment (FGFR1) | phosphorylation enrichment (c-Src) | phosphorylation enrichment (c-Abl (mouse)) | phosphorylation enrichment (Fyn) | phosphorylation enrichment (Hck) | phosphorylation enrichment (Fer (mouse)) | phosphorylation enrichment (AncSZ) | phosphorylation enrichment (EPHB2) | phosphorylation enrichment (Fes) | phosphorylation enrichment (Jak2) | phosphorylation enrichment (MERTK) | SH2 binding enrichment (Grb2 SH2) | SH2 binding enrichment (c-Src SH2) | SH2 binding enrichment (SHP2-C SH2)
HEGKIYEFNQV [ZNF665_Y162_YF] | 0.883 | 0.929 | 0.665 | 4.38 | 1.6 | 6.98 | 1.64 | 22.6 | 0.796 | 1.17 | 0.975 | 0.468 | 4.13 | 0.82 | 0.371 | 0.633
HFNLTYRILSF [MMP23B_Y95] | 0.826 | 1.19 | 0.486 | 0.636 | 1.47 | 0.391 | 0.644 | 0.726 | 1.6 | 0.615 | 1.8 | 1.8 | 0.481 | 0.586 | 0.326 | 0.587
HFVDEYDPTIE [KRAS_Y32] | 0.784 | 0.888 | 0.884 | 0.779 | 1.33 | 0.605 | 0.828 | 0.886 | 1.74 | 0.99 | 1.79 | 1.54 | 0.724 | 0.786 | 0.575 | 0.666
HFVDEYDPTME [KRAS_Y32_I36M] | 0.727 | 0.633 | 0.424 | 0.634 | 1.31 | 0.614 | 0.702 | 1.11 | 1.5 | 0.437 | 1.49 | 1.33 | 0.66 | 0.802 | 0.717 | 0.448
HKANEYFPVVI [ADAMTS18_Y764_L769I_YF] | 0.762 | 5.96 | 11.8 | 0.625 | 1.01 | 0.594 | 0.569 | 0.874 | 1.35 | 0.806 | 0.973 | 2.38 | 0.663 | 0.767 | 0.485 | 0.86
HKLSFNEFDFE [BTK_Y40_Y40N_YF] | 0.829 | 0.882 | 0.795 | 0.864 | 1.02 | 0.834 | 0.918 | 0.788 | 1.61 | 0.859 | 1.58 | 1.53 | 0.712 | 0.789 | 0.471 | 0.456
HKLSFYEFDFE [BTK_Y40_YF] | 0.752 | 1.36 | 1.01 | 1.24 | 1.51 | 1.66 | 0.989 | 0.919 | 1.73 | 0.786 | 1.73 | 2.92 | 1.75 | 0.911 | 3.27 | 0.846
HLDRSYSYSYS [PEAR1_Y890_R885H] | 0.603 | 0.66 | 0.558 | 0.474 | 0.49 | 0.424 | 0.424 | 0.401 | 0.718 | 0.477 | 0.583 | 1.02 | 0.583 | 0.889 | 1.53 | 1.2
HLNLTYRILSF [MMP23B_Y95_F91L] | 0.673 | 1.27 | 0.645 | 0.491 | 1.08 | 0.694 | 0.54 | 0.605 | 1.43 | 0.664 | 1.68 | 1.51 | 0.42 | 1.03 | 0.474 | 0.624
HQIQSYTCEID [DES_Y331] | 0.7 | 0.882 | 0.822 | 0.502 | 0.767 | 0.628 | 0.675 | 0.349 | 0.927 | 0.802 | 1.27 | 1.44 | 0.595 | 0.951 | 0.774 | 0.786
HTLMKYTDGDQ [PUS7L_Y94_I92M] | 1.17 | 0.897 | 0.813 | 0.788 | 1.08 | 0.595 | 0.682 | 0.666 | 1.34 | 0.634 | 1.48 | 1.26 | 0.463 | 0.794 | 0.563 | 0.757
HYEDGYPGGSD [CTNND1_Y221] | 0.796 | 0.945 | 0.819 | 1.13 | 1.12 | 0.799 | 0.629 | 0.908 | 1.75 | 0.762 | 1.28 | 1.44 | 0.852 | 0.915 | 0.924 | 0.786
IAAEFYDNLPH [DEGS1_Y284_YF] | 0.531 | 0.682 | 0.66 | 0.723 | 0.535 | 0.72 | 3.88 | 1.12 | 0.894 | 0.68 | 0.79 | 0.559 | 0.687 | 0.774 | 0.77 | 0.697
IDQDKYAVRFI [FLNA_Y2388] | 0.459 | 0.545 | 0.425 | 0.393 | 0.566 | 0.488 | 0.524 | 0.473 | 0.78 | 0.458 | 0.787 | 0.635 | 0.379 | 0.865 | 0.54 | 0.696
IEDPYYGNDFD [ACP1_Y133_S137F] | 0.832 | 1.7 | 1.6 | 2.94 | 0.93 | 1.65 | 1.02 | 0.786 | 1.65 | 0.859 | 1.47 | 1.43 | 0.513 | 0.863 | 0.68 | 0.617
IETGKYEILTE | 0.684 | 0.78 | 0.519 | 0.495 | 0.807 | 0.429 | 0.478 | 0.703 | 1.18 | 0.601 | 1.34 | 1.14 | 0.585 | 0.746 | 10.6 | 0.609
IFETDYFRKGG [INSR_Y1189_YF] | 0.568 | 0.686 | 0.536 | 0.539 | 0.741 | 0.5 | 0.529 | 0.581 | 0.988 | 0.626 | 0.938 | 0.934 | 0.436 | 0.918 | 0.472 | 0.672

Sequence | phosphorylation enrichment (EPHB1) | phosphorylation enrichment (FGFR3) | phosphorylation enrichment (FGFR1) | phosphorylation enrichment (c-Src) | phosphorylation enrichment (c-Abl (mouse)) | phosphorylation enrichment (Fyn) | phosphorylation enrichment (Hck) | phosphorylation enrichment (Fer (mouse)) | phosphorylation enrichment (AncSZ) | phosphorylation enrichment (EPHB2) | phosphorylation enrichment (Fes) | phosphorylation enrichment (Jak2) | phosphorylation enrichment (MERTK) | SH2 binding enrichment (Grb2 SH2) | SH2 binding enrichment (c-Src SH2) | SH2 binding enrichment (SHP2-C SH2)
IGEGTYGVVYK [CDK2_Y15] | 2.67 | 0.67 | 0.551 | 5.96 | 0.63 | 10.6 | 7.9 | 1.73 | 0.907 | 7.28 | 0.896 | 0.756 | 2.01 | 0.73 | 0.507 | 0.535
IGEVVYQRAAM [GRIN2A_Y502_V506A] | 0.442 | 0.394 | 0.438 | 1.27 | 5.89 | 0.9 | 1.66 | 0.78 | 0.841 | 0.425 | 0.824 | 0.595 | 0.441 | 0.84 | 0.53 | 0.883
IGHHAYGDQFR [IDH1_Y135_R132H_YF] | 0.444 | 0.477 | 0.414 | 0.373 | 0.516 | 0.346 | 0.381 | 0.371 | 0.63 | 0.417 | 0.618 | 0.503 | 0.397 | 0.885 | 0.487 | 0.659
IGRHAYGDQFR [IDH1_Y135_YF] | 0.367 | 0.383 | 0.331 | 0.407 | 0.516 | 0.381 | 0.341 | 0.339 | 0.449 | 0.391 | 0.507 | 0.487 | 0.296 | 0.996 | 0.817 | 0.633
IGSHAYGDQYR [IDH1_Y135_R132S] | 0.497 | 0.517 | 0.45 | 0.43 | 0.576 | 0.464 | 0.342 | 0.374 | 0.583 | 0.419 | 0.619 | 0.554 | 0.406 | 0.848 | 0.433 | 0.521
IHKEFYDGLFP [BCR_Y561] | 0.802 | 0.853 | 0.606 | 0.878 | 0.864 | 0.57 | 1.17 | 0.699 | 1.08 | 0.743 | 1.27 | 1.06 | 0.823 | 0.946 | 0.913 | 0.77
IHTDAYVRAMT [RPE65_Y89_R85H] | 0.35 | 0.401 | 0.389 | 0.363 | 0.474 | 0.375 | 0.397 | 0.407 | 0.475 | 0.414 | 0.589 | 0.442 | 0.319 | 0.76 | 0.451 | 0.914
IIEDPYFGNDF [ACP1_Y132_S137F_YF] | 0.664 | 0.908 | 0.791 | 2.98 | 0.871 | 1.11 | 0.823 | 0.757 | 1.36 | 0.695 | 1.43 | 1.3 | 0.487 | 0.769 | 0.519 | 0.662
IIEDPYYGNDF [ACP1_Y132_S137F] | 0.683 | 2.88 | 3.18 | 4.91 | 1.09 | 2.71 | 1.55 | 1.42 | 1.79 | 0.666 | 1.48 | 1.48 | 1.15 | 0.958 | 0.726 | 0.488
IIGNGYFFHVF [MYBPC3_Y1135_R1138H_YF] | 0.569 | 0.699 | 0.4 | 0.34 | 0.776 | 0.313 | 0.314 | 0.398 | 1.11 | 0.547 | 1.09 | 1.07 | 0.254 | 0.848 | 0.484 | 0.74
IIQRAYRGHLL [SCN1A_Y1926_R1928G] | 0.38 | 0.628 | 0.447 | 0.432 | 0.437 | 0.429 | 0.428 | 0.387 | 0.483 | 0.327 | 0.671 | 0.555 | 0.47 | 0.758 | 0.5 | 0.559
IKNFKYGIEEH [GJA1_Y137_K134N] | 0.351 | 0.549 | 0.388 | 0.368 | 0.38 | 0.335 | 0.414 | 0.311 | 0.621 | 0.508 | 0.715 | 0.682 | 0.383 | 0.865 | 0.416 | 0.456
IKNPQYFSDAC [NTRK1_Y496_E492K] | 0.37 | 0.591 | 0.548 | 0.473 | 0.464 | 0.464 | 0.418 | 0.37 | 0.648 | 0.415 | 0.74 | 0.634 | 0.344 | 0.909 | 0.524 | 0.895
ILCTVYAFKTR [GRM3_Y754] | 0.577 | 0.715 | 0.543 | 0.599 | 0.696 | 0.528 | 0.624 | 0.61 | 1.52 | 0.478 | 1.49 | 1.33 | 0.609 | 1.3 | 0.794 | 0.985
ILDEAYVMAIV [EGFR_Y764_S768I] | 0.62 | 1.02 | 0.963 | 0.829 | 0.84 | 0.662 | 0.531 | 0.968 | 1.5 | 0.686 | 1.35 | 1.39 | 0.454 | 0.791 | 0.432 | 0.581
IMNLLYHVVGW [GBA_Y412_T408M] | 4.93 | 5.38 | 6.14 | 5.2 | 2.74 | 4.49 | 6.31 | 2.16 | 0.963 | 2.71 | 0.872 | 2.43 | 7.65 | 1.61 | 1.41 | 1.66
